# Results taken from publication PMC4565748 (Molecular immunology, 2015).
# Residue numbers refer to the chain shown, from its start. Numbers in names are those of the source.
# B1: SCIN-A: full-length staphylococcal complement inhibitor SCIN-A, Staphylococcus aureus strain Mu50 (protein)
# chain: STSLPTSNEYQNEKLANELKSLLDELNVNELATGSLNTYYKRTIKISGQKAMYALKSKDFKKMSEAKYQLQKIYNEIDEALKSKY
# B2: SCIN-A.R42A: full-length SCIN-A with Arg-42 alanine mutation (protein)
# chain: B1 chain with R42A
# B3: SCIN-A.Q49A (protein)
# chain: B1 chain with Q49A
# Target: C3b (Homo sapiens, UniProt P01024)
# Sequence (P01024 23-667 limits assumed): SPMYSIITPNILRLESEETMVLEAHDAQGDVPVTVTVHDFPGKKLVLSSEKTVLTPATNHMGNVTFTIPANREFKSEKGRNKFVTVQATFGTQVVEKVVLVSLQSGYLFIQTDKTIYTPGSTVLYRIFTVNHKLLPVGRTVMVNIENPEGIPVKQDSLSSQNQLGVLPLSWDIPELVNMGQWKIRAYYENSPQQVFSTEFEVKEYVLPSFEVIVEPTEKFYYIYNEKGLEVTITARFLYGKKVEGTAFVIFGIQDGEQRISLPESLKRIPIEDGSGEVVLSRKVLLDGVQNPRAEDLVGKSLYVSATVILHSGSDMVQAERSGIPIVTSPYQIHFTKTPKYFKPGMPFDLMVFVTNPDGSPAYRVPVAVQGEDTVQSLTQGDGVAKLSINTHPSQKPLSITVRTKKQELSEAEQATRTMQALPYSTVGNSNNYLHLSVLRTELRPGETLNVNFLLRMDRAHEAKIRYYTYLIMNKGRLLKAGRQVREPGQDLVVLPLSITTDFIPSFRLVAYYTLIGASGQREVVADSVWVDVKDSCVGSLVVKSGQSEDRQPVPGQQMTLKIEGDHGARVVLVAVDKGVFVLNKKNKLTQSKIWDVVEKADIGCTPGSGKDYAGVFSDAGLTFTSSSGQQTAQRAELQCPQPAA
# Sequence (P01024 749-1663 limits assumed): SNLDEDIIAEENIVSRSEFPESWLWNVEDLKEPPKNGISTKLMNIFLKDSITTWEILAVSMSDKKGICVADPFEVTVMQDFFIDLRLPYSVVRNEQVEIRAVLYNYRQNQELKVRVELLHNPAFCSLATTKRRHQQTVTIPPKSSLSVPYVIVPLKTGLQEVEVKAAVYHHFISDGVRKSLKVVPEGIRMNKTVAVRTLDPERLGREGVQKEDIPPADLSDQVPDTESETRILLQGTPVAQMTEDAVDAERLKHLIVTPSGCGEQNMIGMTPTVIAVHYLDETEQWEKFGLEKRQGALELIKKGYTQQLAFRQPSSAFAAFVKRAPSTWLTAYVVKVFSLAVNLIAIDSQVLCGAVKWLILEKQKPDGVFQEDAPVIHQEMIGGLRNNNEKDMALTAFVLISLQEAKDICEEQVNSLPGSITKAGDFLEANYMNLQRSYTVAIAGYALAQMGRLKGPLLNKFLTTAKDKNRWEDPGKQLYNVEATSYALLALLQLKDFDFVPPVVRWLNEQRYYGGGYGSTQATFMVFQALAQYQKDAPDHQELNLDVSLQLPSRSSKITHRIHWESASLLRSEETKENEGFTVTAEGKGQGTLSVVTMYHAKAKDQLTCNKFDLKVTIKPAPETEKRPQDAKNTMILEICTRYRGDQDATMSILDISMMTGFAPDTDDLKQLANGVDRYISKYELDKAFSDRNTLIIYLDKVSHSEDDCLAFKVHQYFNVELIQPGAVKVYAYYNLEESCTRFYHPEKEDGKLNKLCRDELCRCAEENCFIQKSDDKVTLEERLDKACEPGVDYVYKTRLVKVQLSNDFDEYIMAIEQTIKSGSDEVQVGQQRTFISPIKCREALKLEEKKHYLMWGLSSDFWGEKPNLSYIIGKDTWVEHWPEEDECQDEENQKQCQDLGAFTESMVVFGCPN
# Experiment: SPR direct binding to site-specifically immobilized C3b
# Conditions: SPR kinetic analysis, 1:1 Langmuir model
Molecule,ka,kd
B1,(5.5 ± 0.15) × 10^5 M^−1s^−1,(5.1 ± 0.52) × 10^−2 s^−1
B2,(8.9 ± 0.15) × 10^4 M^−1s^−1,(5.8 ± 0.45) × 10^−1 s^−1
B3,(7.6 ± 2.0) × 10^5 M^−1s^−1,(5.1 ± 0.73) × 10^−2 s^−1
